Laboratory results published in paper PMC9394524.

Biological target: Kel1 (UniProt P38853)
Test: GFP-trap IP of Kel1-GFP, anti-FLAG blot
Conditions: reference: wild-type Sst2-3xFLAG; sites S539

RGS Sst2 (from UniProt P11972) S539A was tested, and the “binding against the reference” value was “stronger”.
